{
  "source": "paper PMC3089482",
  "about": "(Nucleic Acids Research, 2011)",
  "binders": {"B1": {"name": "GST-RNase HII hinge deletion mutant (ΔSNLR) (enzyme)", "chain": "MKAGIDEAGKGCVIGPLVVAGVACSDEDRLRKLGVKDSKKLSQGRREELAEEIRKICRTEVLKVSPENLDERMAAKTINEILKECYAEIILRLKPEIAYVDSPDVIPERLSRELEEITGLRVVAEHKADEKYPLVAAASIIAKVEREREIERLKEKFGDFGSGYASDPRTREVLKEWIASGRIPSCVRMRWKTVQKTLDDF"}},
  "target": "T1, Archaeoglobus fulgidus PCNA (Archaeoglobus fulgidus, UniProt O29912)",
  "T1 sequence": "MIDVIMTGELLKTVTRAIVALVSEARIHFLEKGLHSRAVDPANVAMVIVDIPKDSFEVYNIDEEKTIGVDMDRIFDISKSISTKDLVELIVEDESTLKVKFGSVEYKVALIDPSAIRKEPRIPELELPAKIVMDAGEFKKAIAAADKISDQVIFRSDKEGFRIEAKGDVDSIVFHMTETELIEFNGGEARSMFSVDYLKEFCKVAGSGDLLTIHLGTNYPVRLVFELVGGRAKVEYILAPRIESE",
  "experiment": "pull-down",
  "data": [
    {"binder": "B1", "values": [
      {"measurement": "binding result", "value": "binds"}
    ]}
  ]
}
